Source: article doi:10.1101/2022.04.18.488652 (bioRxiv, 2022)
Changes are numbered by the printed parent chain. Names and notes keep the numbering of the source.

B1: NaKΔ18 (domain or fragment, B. cereus)
chain: WKDKEFQVLFVLTILTLISGTIFYSTVEGLRPIDALYFSVVTLTTVGDGNFSPQTDFGKIFTILYIFIGIGLVFGFIHKLAVNVQLPSILSNRKKE
B2: NaKΔ18 L61A (domain or fragment, B. cereus, UniProt Q81HW2 19-114, looked up)
chain: B1 chain with L43A
B3: NaKΔ18 L35A+L61A (domain or fragment, B. cereus, UniProt Q81HW2 19-114, looked up)
chain: B1 chain with L17A, L43A
B4: NaKΔ18 L61T (domain or fragment, B. cereus, UniProt Q81HW2 19-114, looked up)
chain: B1 chain with L43T
B5: NaKΔ18 L35A (domain or fragment, B. cereus, UniProt Q81HW2 19-114, looked up)
chain: B1 chain with L17A

Molecular target: the molecule itself
Experiment: SEC

Stoichiometry N, 4:
B1, B2, B3, B4, B5
